In the supplement of paper PMC5998384:

Test system: HeLa Kyoto
Assay: melting temperature (median over replicates), in situ; higher = more thermally stable
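Also: HeLa Kyoto cells synchronized by double thymidine or nocodazole block, proteins quantified by TMT10plex mass spectrometry, three independent biological replicates.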

| Sequence | melting temperature (cell cycle stage: G1/S) [°C] | melting temperature (cell cycle stage: mitosis) [°C] |
| --- | --- | --- |
| MGDMANSSIEFHPKPQQQRDVPQAGGFGCTLAELRTLMELRGAEALQKIEEAYGDVSGLCRRLKTSPTEGLADNTNDLEKRRQIYGQNFIPPKQPKTFLQLVWEALQDVTLIILEVAAIVSLGLSFYAPPGEESEACGNVSGGAEDEGEAEAGWIEGAAILLSVICVVLVTAFNDWSKEKQFRGLQSRIEQEQKFTVIRNGQLLQVPVAALVVGDIAQVKYGDLLPADGVLIQANDLKIDESSLTGESDHVRKSADKDPMLLSGTHVMEGSGRMVVTAVGVNSQTGIIFTLLGAGGEEEEKKDKKGKQQDGAMESSQTKAKKQDGAVAMEMQPLKSAEGGEMEEREKKKANAPKKEKSVLQGKLTKLAVQIGKAGLVMSAITVIILVLYFVIETFVVEGRTWLAECTPVYVQYFVKFFIIGVTVLVVAVPEGLPLAVTISLAYSVKKMMKDNNLVRHLDACETMGNATAICSDKTGTLTTNRMTVVQSYLGDTHYKEIPAPSALTPKILDLLVHAISINSAYTTKILPPEKEGALPRQVGNKTECALLGFVLDLKRDFQPVREQIPEDKLYKVYTFNSVRKSMSTVIRMPDGGFRLFSKGASEILLKKCTNILNSNGELRGFRPRDRDDMVRKIIEPMACDGLRTICIAYRDFSAGQEPDWDNENEVVGDLTCIAVVGIEDPVRPEVPEAIRKCQRAGITVRMVTGDNINTARAIAAKCGIIQPGEDFLCLEGKEFNRRIRNEKGEIEQERLDKVWPKLRVLARSSPTDKHTLVKGIIDSTTGEQRQVVAVTGDGTNDGPALKKADVGFAMGIAGTDVAKEASDIILTDDNFTSIVKAVMWGRNVYDSISKFLQFQLTVNVVAVIVAFTGACITQDSPLKAVQMLWVNLIMDTFASLALATEPPTESLLLRKPYGRDKPLISRTMMKNILGHAVYQLAIIFTLLFVGELFFDIDSGRNAPLHSPPSEHYTIIFNTFVMMQLFNEINARKIHGERNVFDGIFSNPIFCTIVLGTFGIQIVIVQFGGKPFSCSPLSTEQWLWCLFVGVGELVWGQVIATIPTSQLKCLKEAGHGPGKDEMTDEELAEGEEEIDHAERELRRGQILWFRGLNRIQTQIRVVKAFRSSLYEGLEKPESKTSIHNFMATPEFLINDYTHNIPLIDDTDVDENEERLRAPPPPSPNQNNNAIDSGIYLTTHVTKSATSSVFSSSPGSPLHSVETSL [ATP2B3] | 54.2 | – |
| MGKEKTHINIVVIGHVDSGKSTTTGHLIYKCGGIDKRTIEKFEKEAAEMGKGSFKYAWVLDKLKAERERGITIDISLWKFETSKYYVTIIDAPGHRDFIKNMITGTSQADCAVLIVAAGVGEFEAGISKNGQTREHALLAYTLGVKQLIVGVNKMDSTEPPYSQKRYEEIVKEVSTYIKKIGYNPDTVAFVPISGWNGDNMLEPSANMPWFKGWKVTRKDGNASGTTLLEALDCILPPTRPTDKPLRLPLQDVYKIGGIGTVPVGRVETGVLKPGMVVTFAPVNVTTEVKSVEMHHEALSEALPGDNVGFNVKNVSVKDVRRGNVAGDSKNDPPMEAAGFTAQVIILNHPGQISAGYAPVLDCHTAHIACKFAELKEKIDRRSGKKLEDGPKFLKSGDAAIVDMVPGKPMCVESFSDYPPLGRFAVRDMRQTVAVGVIKAVDKKAAGAGKVTKSAQKAQKAK [EEF1A1] | 52.4 | 52.4 |
| MGLELFLDLVSQPSRAVYIFAKKNGIPLELRTVDLVKGQHKSKEFLQINSLGKLPTLKDGDFILTESSAILIYLSCKYQTPDHWYPSDLQARARVHEYLGWHADCIRGTFGIPLWVQVLGPLIGVQVPEEKVERNRTAMDQALQWLEDKFLGDRPFLAGQQVTLADLMALEELMQPVALGYELFEGRPRLAAWRGRVEAFLGAELCQEAHSIILSILEQAAKKTLPTPSPEAYQAMLLRIARIP [GSTT2B] | 54.9 | 55.1 |
| MGSRWSSEEERQPLLGPGLGPGLGASWRSREAAAAALPAAVPGPGRVYGRRWLVLLLFSLLAFVQGLVWNTWGPIQNSARQAYGFSSWDIALLVLWGPIGFLPCFAFMWLLDKRGLRITVLLTSFLMVLGTGLRCIPISDLILKRRLIHGGQMLNGLAGPTVMNAAPFLSTTWFSADERATATAIASMLSYLGGACAFLVGPLVVPAPNGTSPLLAAESSRAHIKDRIEAVLYAEFGVVCLIFSATLAYFPPRPPLPPSVAAASQRLSYRRSVCRLLSNFRFLMIALAYAIPLGVFAGWSGVLDLILTPAHVSQVDAGWIGFWSIVGGCVVGIAMARFADFIRGMLKLILLLLFSGATLSSTWFTLTCLNSITHLPLTTVTLYASCILLGVFLNSSVPIFFELFVETVYPVPEGITCGVVTFLSNMFMGVLLFFLTFYHTELSWFNWCLPGSCLLSLLLILCFRESYDRLYLDVVVSV [DIRC2] | 54.8 | – |
| MIEAEEQQPCKTDFYSELPKVELHAHLNGSISSHTMKKLIAQKPDLKIHDQMTVIDKGKKRTLEECFQMFQTIHQLTSSPEDILMVTKDVIKEFADDGVKYLELRSTPRRENATGMTKKTYVESILEGIKQSKQENLDIDVRYLIAVDRRGGPLVAKETVKLAEEFFLSTEGTVLGLDLSGDPTVGQAKDFLEPLLEAKKAGLKLALHLSEIPNQKKETQILLDLLPDRIGHGTFLNSGEGGSLDLVDFVRQHRIPLELCLTSNVKSQTVPSYDQHHFGFWYSIAHPSVICTDDKGVFATHLSQEYQLAAETFNLTQSQVWDLSYESINYIFASDSTRSELRKKWNHLKPRVLHI [ADAL] | 57.1 | 57.2 |
